Assay results taken from the supplement of paper PMC11246515.
± gives the standard deviation of the averaged measurements.

Experiment: total protein half-life in vivo (active degradation + dilution); higher = more stable protein
[1] = E. coli NCM3722 delta-clpP delta-lon delta-hslV, growth: N-lim chemostat, doubling time 6 h
[2] = E. coli NCM3722 delta-clpP, growth: N-lim chemostat, doubling time 6 h
[3] = E. coli NCM3722 delta-hslV, growth: N-lim chemostat, doubling time 6 h
[4] = E. coli NCM3722 delta-lon, growth: N-lim chemostat, doubling time 6 h
[5] = E. coli NCM3722 delta-smpB, growth: N-lim chemostat, doubling time 6 h
[6] = wild type E. coli NCM3722, growth: C-lim chemostat, doubling time 3 h
[7] = wild type E. coli NCM3722, growth: C-lim chemostat, doubling time 6 h
[8] = wild type E. coli NCM3722, growth: C-lim chemostat, doubling time 12 h
[9] = wild type E. coli NCM3722, growth: N-lim chemostat, doubling time 6 h
[10] = wild type E. coli NCM3722, growth: N-lim chemostat, doubling time 12 h
[11] = wild type E. coli NCM3722, growth: P-lim chemostat, doubling time 6 h
[12] = wild type E. coli NCM3722, growth: P-lim chemostat, doubling time 12 h

Row | Sequence | total protein half-life in vivo [1] [h] | total protein half-life in vivo [2] [h] | total protein half-life in vivo [3] [h] | total protein half-life in vivo [4] [h] | total protein half-life in vivo [5] [h] | total protein half-life in vivo [6] [h] | total protein half-life in vivo [7] [h] | total protein half-life in vivo [8] [h] | total protein half-life in vivo [9] [h] | total protein half-life in vivo [10] [h] | total protein half-life in vivo [11] [h] | total protein half-life in vivo [12] [h]
1 | MRLLHTMLRVGDLQRSIDFYTKVLGMKLLRTSENPEYKYSLAFVGYGPETEEAVIELTYNWGVDKYELGTAYGHIALSVDNAAEACEKIRQNGGNVTREAGPVKGGTTVIAFVEDPDGYKIELIEEKDAGRGLGN [P0AC81] | 5.13 ± 0.38 | 4.5 ± 0.53 | 4.72 ± 0.37 | 5 ± 0.3 | 4.3 ± 0.39 | 3.48 ± 0.63 | 5.44 ± 0.1 | 8.9 ± 0.29 | 4.38 ± 0.4 | 8.01 ± 1 | 5.41 ± 0.27 | 11.6 ± 0.91
2 | MLHKKTLLFAALSAALWGGATQAADAAVVASLKPVGFIASAIADGVTETEVLLPDGASEHDYSLRPSDVKRLQNADLVVWVGPEMEAFMQKPVSKLPGAKQVTIAQLEDVKPLLMKSIHGDDDDHDHAEKSDEDHHHGDFNMHLWLSPEIARATAVAIHGKLVELMPQSRAKLDANLKDFEAQLASTETQVGNELAPLKGKGYFVFHDAYGYFEKQFGLTPLGHFTVNPEIQPGAQRLHEIRTQLVEQKATCVFAEPQFRPAVVESVARGTSVRMGTLDPLGTNIKLGKTSYSEFLSQLANQYASCLKGD | 3.68 ± 0.41 | 4.85 ± 0.4 | 5.99 ± 0.29 | 7.17 ± 0.96 | – | 2.86 ± 0.12 | 5.54 ± 0.29 | 9.55 ± 1.5 | – | 13.6 ± 1.4 | 5.24 ± 0.2 | 11.4 ± 2.3
3 | MSQVTENKVISAPVPMTPLQEFWHYFKRNKGAVVGLVYVVIVLFIAIFANWIAPYNPAEQFRDALLAPPAWQEGGSMAHLLGTDDVGRDVLSRLMYGARLSLLVGCLVVVLSLIMGVILGLIAGYFGGLVDNIIMRVVDIMLALPSLLLALVLVAIFGPSIGNAALALTFVALPHYVRLTRAAVLVEVNRDYVTASRVAGAGAMRQMFINIFPNCLAPLIVQASLGFSNAILDMAALGFLGMGAQPPTPEWGTMLSDVLQFAQSAWWVVTFPGLAILLTVLAFNLMGDGLRDALDPKLKQ [P0AEG1] | 6.11 | 5.53 ± 0.37 | 6.45 | 6.14 ± 1 | 5.93 ± 0.46 | 3.47 | > 8 | 12.6 ± 2.1 | 6.39 ± 0.51 | 10.9 ± 2 | 6.16 ± 0.14 | 10.8 ± 2.3
4 | MMINVQTVAVIGSGTMGAGIAEVAASHGHQVLLYDISAEALTRAIDGIHARLNSRVTRGKLTAETCERTLKRLIPVTDIHALAAADLVIEAASERLEVKKALFAQLAEVCPPQTLLTTNTSSISITAIAAEIKNPERVAGLHFFNPAPVMKLVEVVSGLATAAEVVEQLCELTLSWGKQPVRCHSTPGFIVNRVARPYYSEAWRALEEQVAAPEVIDAALRDGAGFPMGPLELTDLIGQDVNFAVTCSVFNAFWQERRFLPSLVQQELVIGGRLGKKSGLGVYDWRAEREAVVGLEAVSDSFSPMKVEKKSDGVTEIDDVLLIETQGETAQALAIRLARPVVVIDKMAGKVVTIAAAAVNPDSATRKAIYYLQQQGKTVLQIADYPGMLIWRTVAMIINEALDALQKGVASEQDIDTAMRLGVNYPYGPLAWGAQLGWQRILRLLENLQHHYGEERYRPCSLLRQRALLESGYES | > 8 | – | – | – | – | – | – | – | – | – | – | –
5 | MRKFIFVLLTLLLVSPFSFAMKGIIWQPQNRDSQVTDTQWQGLMSQLRLQGFDTLVLQWTRYGDAFTQPEQRTLLFKRAAAAQQAGLKLIVGLNADPEFFMHQKQSSAALESYLNRLLAADLQQARLWSAAPGITPDGWYISAEIDDLNWRSEAARQPLLTWLNNAQRLISDVSAKPVYISSFFAGNMSPDGYRQLLEHVKATGVNVWVQDGSGVDKLTAEQRERYLQASADCQSPAPASGVVYELFVAGKGKTFTAKPKPDAEIASLLAKRSSCGKDTLYFSLRYLPVAHGILEY | 5.13 ± 0.23 | 6.05 ± 0.4 | – | 6.25 ± 0.24 | 5.08 ± 1.3 | – | 6.17 ± 0.52 | – | 5.78 ± 0.16 | 11.8 ± 1.6 | 5.96 ± 0.13 | 12.5 ± 0.58
6 | MDEYSPKRHDIAQLKFLCETLYHDCLANLEESNHGWVNDPTSAINLQLNELIEHIATFALNYKIKYNEDNKLIEQIDEYLDDTFMLFSSYGINMQDLQKWRKSGNRLFRCFVNATKENPASLSC [P0AAR0] | 5.61 ± 0.1 | 7.07 | – | – | – | – | – | – | – | – | – | –
7 | MDYRKIIKEIGRGKNHARDLDRDTARGLYAHMLNGEVPDLELGGVLIALRIKGEGEAEMLGFYEAMQNHTIKLTPPAGKPMPIVIPSYNGARKQANLTPLLAILLHKLGFPVVVHGVSEDPTRVLTETIFELMGITPTLHGGQAQAKLDEHQPVFMPVGAFCPPLEKQLAMRWRMGVRNSAHTLAKLATPFAEGEALRLSSVSHPEYIGRVAKFFSDIGGRALLMHGTEGEVYANPQRCPQINLIDREGMRVLYEKQDTAGSELLPQAKDPETTAQWIERCLAGSEPIPESLKIQMACCLVATGEAATISDGLARVNQAF | 4.81 ± 0.7 | 4.14 ± 0.24 | 4.41 ± 0.12 | 5.22 ± 0.37 | 4.44 ± 0.42 | 3.09 ± 0.67 | 5.84 ± 0.53 | 9.72 ± 1.2 | 4.54 ± 0.17 | 7.03 ± 0.37 | 5.83 ± 0.098 | 11.7 ± 0.24
8 | MLHTLHRSPWLTDFAALLRLLSEGDELLLLQDGVTAAVDGNRYLESLRNAPIKVYALNEDLIARGLTGQISNDIILIDYTDFVRLTVKHPSQMAW | 5.27 ± 0.29 | 5.7 | 4.53 ± 0.13 | 6.44 ± 1.6 | 4.89 ± 0.16 | 3.012 ± 0.0044 | 5.1 | 13.4 ± 3 | 4.39 ± 0.46 | 8.26 | 5.89 | 11.3 ± 0.18
